According to patent US20210115458:
Like-named read-outs stand apart in the source and are kept apart here.

Test system: T1, JUL1 (bead-immobilized for Kd assay) (Arabidopsis thaliana)
T1 sequence: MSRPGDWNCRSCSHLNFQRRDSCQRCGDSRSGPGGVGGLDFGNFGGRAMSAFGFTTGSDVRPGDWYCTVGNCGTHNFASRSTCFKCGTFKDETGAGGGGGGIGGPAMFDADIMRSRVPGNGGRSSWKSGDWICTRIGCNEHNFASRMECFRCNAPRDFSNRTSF
Conditions: FAM-RNA bead fluorescence assay

SMXL5 5' UTR G-quadruplex-forming motif showed a Kd (with potassium (folded G4)) of 230 nM and a Kd (without potassium) of 130 nM.
